The record followed here is publication PMC3479211.

In data set [1] the target is mutant His-p32 (K89A/K93A) (mouse) (UniProt O35658). Kind of data set: SEC. In general terms: In gel filtration, larger molecules generally elute earlier.
The target of data set [2] is wild-type His-p32 (mouse) (UniProt O35658). Kind of data set: SEC.
Data set [3] has as its target T1, p32 (gC1qR) wild-type (Mus musculus, UniProt Q8R5L1 72-279).
T1 sequence: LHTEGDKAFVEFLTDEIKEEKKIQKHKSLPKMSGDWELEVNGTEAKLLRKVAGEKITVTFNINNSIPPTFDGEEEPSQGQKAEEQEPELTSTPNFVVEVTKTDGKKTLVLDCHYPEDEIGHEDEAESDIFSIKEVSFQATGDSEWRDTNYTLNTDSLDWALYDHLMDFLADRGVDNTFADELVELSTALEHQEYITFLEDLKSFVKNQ
The experiment in a line: EMSA. Background: Mobility shift assays separate free from complexed probe on a gel.

In data set [4] the target is T1, p32 (gC1qR) wild-type. Kind of data set: competition.
For data set [5], the target named is T1, p32 (gC1qR) wild-type. The experiment in a line: EMSA. The source holds these as a separate data set.
The target of data set [6] is T1, p32 (gC1qR) wild-type. The experiment in a line: competition. This is another data set of the same source.

By stoichiometry N is commonly meant the number of molecules, sites or subunits per partner or assembly. In turn, “mutant His-p32 (K89A/K93A) (from UniProt O35658 71-278) (natural protein)” registered a stoichiometry N in data set [1] of 3.

“wild-type His-p32 (from UniProt O35658 71-278) (natural protein)”: the stoichiometry N in data set [2] stood at 3. Regarding GUUUACGGUGCUA (ssRNA) [14-mer RNA (random)], the binding result in the data set with p32 (gC1qR) wild-type [3] is given as “binds”. Consider GGGAGAAAAACAAAACAAAACAAAACUAGCACCGUAAAGC (ssRNA) [40-mer RNA (random)], for which the binding result in the data set with p32 (gC1qR) wild-type [4] is reported as “binds”. In general, Kd refers to the constant that tells how readily two partners part at equilibrium. A lower Kd goes with higher affinity. Consider AAAAAAAAAAAAAAAAAAAAAA (ssRNA) [22-mer poly(A) RNA], for which, in the data set with p32 (gC1qR) wild-type [5], the Kd was ~6 µM. Turning to AAAAAAAAAAAAAAAAAAAAAA (ssDNA) [22-mer poly(A) DNA], the binding result with p32 (gC1qR) wild-type [6] is reported as “no binding”.
